This is an account of results in patent publication EP4613763A1 (Chuang, Woei-jer, dated 2025).

Sequences and labels used below:
B1: protein C7 (designed binder)
chain: VSDVPRDLEVVAATPTSLLISWRHPHFPTRYYRITYGETGGNSPVQEFTVPLQPPTATISGLKPGVDYTITVYAVTDGRNGRLLSIPISINYRT
B2: C7-LL3-His (designed binder, not shown: small tags and cut ends)
chain: B1 chain with T39C, D67C
modifications: Designed disulfide bond between Cys39 and Cys67.
notes: His-tagged C7 variant with one introduced disulfide bond
B3: C7-SL1-His (designed binder, not shown: small tags and cut ends)
chain: B1 chain with L8C, S89C
modifications: Designed disulfide bond between Cys8 and Cys89.
notes: as for B2
B4: C7-SL4-His (designed binder, not shown: small tags and cut ends)
chain: B1 chain with D67C, N91C
modifications: Designed disulfide bond between Cys67 and Cys91.
notes: as for B2
B5: C7-SL1-LL3-His (designed binder, not shown: small tags and cut ends)
chain: B1 chain with L8C, T39C, D67C, S89C
modifications: Designed disulfide bonds Cys8-Cys89 and Cys39-Cys67.
notes: His-tagged C7 variant with two introduced disulfide bonds
B6: C7-SL1-LL2-His (designed binder, not shown: small tags and cut ends)
chain: B1 chain with L8C, S17C, S60C, S89C
modifications: Designed disulfide bonds Cys8-Cys89 and Cys17-Cys60.
notes: as for B5
B7: C7-SL2-His (designed binder)
chain: B1 chain with T35C, V45C
modifications: Designed intramolecular disulfide bond Cys35-Cys45 (printed as T36/V46 in the Met-included numbering).
notes: His-tagged C7 variant with one introduced disulfide bond; not shown: N-terminal Met and C-terminal His tag of the expressed construct
B8: C7-SL3-His (designed binder)
chain: B1 chain with G37C, V45C
modifications: Designed intramolecular disulfide bond Cys37-Cys45 (printed as G38/V46 in the Met-included numbering).
notes: as for B7
B9: C7-LL2-His (designed binder, not shown: small tags and cut ends)
chain: B1 chain with S17C, S60C
modifications: Designed disulfide bond between Cys17 and Cys60.
notes: as for B2
B10: C7-LL4-His (designed binder, not shown: small tags and cut ends)
chain: B1 chain with K63C, V66C
modifications: Designed disulfide bond between Cys63 and Cys66.
notes: as for B2
B11: C7-SS1-His (designed binder, not shown: small tags and cut ends)
chain: B1 chain with L19C, T58C
modifications: Designed disulfide bond between Cys19 and Cys58.
notes: as for B2

Substitutions are numbered along the chain they refer to.

In the experiment the target is T1, vascular endothelial growth factor receptor 2 (UniProt P35968 20-764, limits assumed).
T1 construct: also called VEGFR2; kinase insert domain receptor
T1 sequence (P35968 20-764 limits assumed): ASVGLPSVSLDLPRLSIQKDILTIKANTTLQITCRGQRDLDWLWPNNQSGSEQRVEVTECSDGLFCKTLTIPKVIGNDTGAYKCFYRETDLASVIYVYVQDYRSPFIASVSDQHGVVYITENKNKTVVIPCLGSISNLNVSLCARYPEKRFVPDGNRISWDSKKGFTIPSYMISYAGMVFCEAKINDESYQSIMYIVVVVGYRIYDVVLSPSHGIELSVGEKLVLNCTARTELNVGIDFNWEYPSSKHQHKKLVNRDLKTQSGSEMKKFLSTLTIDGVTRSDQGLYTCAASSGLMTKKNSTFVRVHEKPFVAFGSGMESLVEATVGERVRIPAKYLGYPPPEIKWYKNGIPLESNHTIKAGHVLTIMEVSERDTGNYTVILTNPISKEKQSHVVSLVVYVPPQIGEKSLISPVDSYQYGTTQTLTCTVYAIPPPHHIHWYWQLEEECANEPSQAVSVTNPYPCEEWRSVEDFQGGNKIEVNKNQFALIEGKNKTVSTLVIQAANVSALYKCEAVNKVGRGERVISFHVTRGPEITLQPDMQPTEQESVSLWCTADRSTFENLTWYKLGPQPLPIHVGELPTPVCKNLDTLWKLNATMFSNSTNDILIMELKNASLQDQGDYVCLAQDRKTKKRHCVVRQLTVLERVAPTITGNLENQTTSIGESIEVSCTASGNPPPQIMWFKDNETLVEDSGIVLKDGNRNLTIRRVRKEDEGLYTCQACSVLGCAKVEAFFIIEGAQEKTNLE
As to the kind of experiment: ELISA, binding affinity to VEGFR2. For orientation: In an ELISA, binding on a coated surface is turned into a signal by an enzyme label.
As usually defined, the IC50 is the concentration at which inhibition is half-maximal. Low values mean greater potency, high ones weaker potency. Consider B1, for which the IC50 was 16.8 nM.

Molecule B2 came in with an IC50 of 9.8 nM.

The molecule B3 returned an IC50 of 17.6 nM.

B4 returned an IC50 of 18.5 nM.

Molecule B5 gave an IC50 of 19.2 nM.

The molecule B6 had an IC50 of 12.8 nM.

The molecule B7 showed an IC50 of 17.1 nM.

B8 gave an IC50 of 21.3 nM.

In the case of B9, the IC50 came to 18.9 nM.

B10: the IC50 was 16.6 nM.

In the case of B11, the IC50 came to 17.5 nM.
